Data published in patent US20220048996A1 (F STAR BETA, published 2022).
Blank lines part the entries; values can stand above or below the binder they belong to.

What was measured:
[1] = target: T1, human OX40 expressed on DO11.10 cells (DO11.10-hOX40) (human, UniProt P43489 29-277); assay: flow cytometry on DO11.10 cells expressing the target
T1 construct: Also used here for OX40 on primary human T cells in the functional rows; also called human OX40 receptor; OX40 on human T cells
T1 sequence: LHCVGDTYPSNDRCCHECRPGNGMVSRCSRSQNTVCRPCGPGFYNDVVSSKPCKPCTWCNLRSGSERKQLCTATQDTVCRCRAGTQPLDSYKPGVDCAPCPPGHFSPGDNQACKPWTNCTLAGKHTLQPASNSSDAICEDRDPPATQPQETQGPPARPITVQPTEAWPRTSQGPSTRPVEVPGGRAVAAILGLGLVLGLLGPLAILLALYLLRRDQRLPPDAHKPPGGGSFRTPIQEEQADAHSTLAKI
Description: (§1) 50 μl of the antibody dilutions were added to the wells containing cells (final volume 100 μl) and incubated at 4° C. for 1 hour. […] The plates were washed and resuspended in 100 μl of PBS containing DAPI (Biotium, cat no 40043) at 1 μg/ml. The plates were analysed using a Canto II flow cytometer (BD Bioscience) and the data analysed using FlowJo. Dead cells were identified by their higher fluorescence on the UV (405 nm/450/50) channel and excluded from analysis. […] The GMFI data was fit using log (agonist) vs response (three parameters) in Graph Pad Prism Software to generate EC₅₀ values.

[2] = target: T2, cynomolgus OX40 expressed on DO11.10 cells (DO11.10-cOX40) (cynomolgus, UniProt P43489 29-277 (human entry)); assay: as above
T2 chain: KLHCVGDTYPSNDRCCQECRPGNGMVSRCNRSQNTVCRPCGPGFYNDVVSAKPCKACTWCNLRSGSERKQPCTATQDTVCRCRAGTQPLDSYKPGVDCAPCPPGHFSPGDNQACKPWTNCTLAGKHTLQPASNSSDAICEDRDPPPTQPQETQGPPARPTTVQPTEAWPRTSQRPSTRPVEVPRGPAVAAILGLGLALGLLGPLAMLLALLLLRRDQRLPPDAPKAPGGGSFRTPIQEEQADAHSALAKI
Description: as §1

hOX40-mFc [3] = target: T3, hOX40-mFc (human); assay: SPR, antibody captured via anti-human Fab, antigen flowed
T3 construct: Dimeric; also called human OX40-mFc
T3 chain: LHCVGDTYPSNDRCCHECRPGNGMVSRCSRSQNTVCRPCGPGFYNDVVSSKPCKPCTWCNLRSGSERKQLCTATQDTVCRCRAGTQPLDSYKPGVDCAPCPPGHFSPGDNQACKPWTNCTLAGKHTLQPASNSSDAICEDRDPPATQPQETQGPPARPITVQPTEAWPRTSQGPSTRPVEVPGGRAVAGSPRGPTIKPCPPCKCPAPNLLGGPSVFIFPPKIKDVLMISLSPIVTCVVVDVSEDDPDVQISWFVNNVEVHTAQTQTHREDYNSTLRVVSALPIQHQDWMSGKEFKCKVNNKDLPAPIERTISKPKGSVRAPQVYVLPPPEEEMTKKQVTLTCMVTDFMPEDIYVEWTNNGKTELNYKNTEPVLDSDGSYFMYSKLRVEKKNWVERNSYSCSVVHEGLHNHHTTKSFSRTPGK

cOX40-mFc = target: T4, cOX40-mFc (cynomolgus); assay: as above
T4 construct: Dimeric; also called cyno OX40-mFc
T4 chain: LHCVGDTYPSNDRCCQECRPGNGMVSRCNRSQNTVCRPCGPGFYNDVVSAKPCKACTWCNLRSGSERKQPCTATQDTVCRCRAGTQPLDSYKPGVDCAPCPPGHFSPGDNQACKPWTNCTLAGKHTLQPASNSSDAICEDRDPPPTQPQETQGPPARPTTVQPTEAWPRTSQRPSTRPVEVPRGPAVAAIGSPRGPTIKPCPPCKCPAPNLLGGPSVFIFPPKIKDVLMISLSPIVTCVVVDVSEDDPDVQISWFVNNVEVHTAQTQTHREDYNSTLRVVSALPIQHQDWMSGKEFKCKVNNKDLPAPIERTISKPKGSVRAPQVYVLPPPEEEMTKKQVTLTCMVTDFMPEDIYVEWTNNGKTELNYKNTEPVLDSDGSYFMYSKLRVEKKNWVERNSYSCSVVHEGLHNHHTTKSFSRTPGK

[4] = target: T1, human OX40 expressed on DO11.10 cells …; assay: cell-based or functional assay
hCD137-mFc-Avi = target: T5, hCD137-mFc-Avi (human); assay: SPR, antigen immobilised on CM5, mAb^2 at 1 nM and 1 µM
T5 construct: Dimer; a biotinylated version was used where the text says so; also called human CD137-mFc-Avi; hCD137-mFc-Avi-Bio

hOX40-mFc [5] = target: T3, hOX40-mFc; assay: as above
[6] = target: T6, human CD137 expressed on DO11.10 cells (DO11.10-hCD137) (human, UniProt Q07011 24-255); assay: cell-based or functional assay
Target sequence in this assay (Q07011 24-255): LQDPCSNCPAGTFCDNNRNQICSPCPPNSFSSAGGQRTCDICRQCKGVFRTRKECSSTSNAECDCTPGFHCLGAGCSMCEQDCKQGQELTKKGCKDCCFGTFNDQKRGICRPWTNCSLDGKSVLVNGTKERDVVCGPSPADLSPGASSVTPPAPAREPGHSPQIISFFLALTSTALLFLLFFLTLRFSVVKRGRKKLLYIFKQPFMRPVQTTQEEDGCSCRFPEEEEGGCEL

[7] = target: T1, human OX40 expressed on DO11.10 cells …; assay: flow cytometry on DO11.10 cells expressing the target, three experiments
Description: as §1
(§2) However, in this experiment, instead of using HEK cells to analyse the non-specific binding, non-transduced DO11.10 cells were used. […] The experiment was repeated three times to increase the reliability of the EC₅₀ values calculated.

[8] = target: T2, cynomolgus OX40 expressed on DO11.10 …; assay: as above
Description: as §1, §2

[9] = target: T7, cynomolgus CD137 expressed on DO11.10 cells (DO11.10-cCD137) (cynomolgus monkey, UniProt Q07011 24-255 (human entry)); assay: flow cytometry on DO11.10 cells expressing the target, mean ± SD of three experiments
T7 chain: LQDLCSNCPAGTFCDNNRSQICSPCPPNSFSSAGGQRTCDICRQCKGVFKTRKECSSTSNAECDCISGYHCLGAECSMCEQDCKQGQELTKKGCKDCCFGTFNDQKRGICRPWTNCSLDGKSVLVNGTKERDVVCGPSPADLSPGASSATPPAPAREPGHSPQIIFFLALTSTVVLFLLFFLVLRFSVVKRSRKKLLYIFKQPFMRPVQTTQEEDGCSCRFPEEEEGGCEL
Description: as §1, §2

[10] = target: T6, human CD137 expressed on DO11.10 cells …; assay: as above
Description: as §1, §2

[11] = target: T8, mouse OX40 expressed on DO11.10 cells (DO11.10-mOX40) (mouse, UniProt P47741 20-272); assay: flow cytometry, fluorescently-labelled antibody on DO11.10-mOX40
T8 construct: Also used here for OX40 on primary mouse T cells in the functional rows; also called OX40 on mouse T cells
T8 sequence: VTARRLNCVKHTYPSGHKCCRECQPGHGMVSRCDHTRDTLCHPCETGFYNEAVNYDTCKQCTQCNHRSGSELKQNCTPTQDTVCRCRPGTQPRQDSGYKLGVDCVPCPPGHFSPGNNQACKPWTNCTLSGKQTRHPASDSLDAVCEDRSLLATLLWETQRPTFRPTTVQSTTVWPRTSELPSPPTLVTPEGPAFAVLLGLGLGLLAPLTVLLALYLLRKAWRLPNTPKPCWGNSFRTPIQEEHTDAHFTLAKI

T5 sequence (chain, as listed by the source limits assumed): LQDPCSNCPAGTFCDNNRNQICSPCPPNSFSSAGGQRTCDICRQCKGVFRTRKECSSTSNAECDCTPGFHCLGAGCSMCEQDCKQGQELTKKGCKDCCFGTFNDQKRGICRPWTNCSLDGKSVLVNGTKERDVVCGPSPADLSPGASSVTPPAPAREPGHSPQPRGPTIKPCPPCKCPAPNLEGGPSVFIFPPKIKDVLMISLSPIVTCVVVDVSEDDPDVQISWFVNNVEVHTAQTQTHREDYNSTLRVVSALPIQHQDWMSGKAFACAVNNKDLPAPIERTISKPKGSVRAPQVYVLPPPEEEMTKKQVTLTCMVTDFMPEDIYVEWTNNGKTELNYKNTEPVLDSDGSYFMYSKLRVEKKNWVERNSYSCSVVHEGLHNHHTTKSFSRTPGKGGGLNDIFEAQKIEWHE

binding result [1]: no binding | binding result [2]: no binding | binding result (hOX40-mFc [3]): no binding (tested: 200 nM) | binding result (cOX40-mFc): no binding (tested: 200 nM)
B1: G1/MOR7480.1 (antibody, human IgG1, lambda)
heavy: not shown
light: SYELTQPPSVSVSPGQTASITCSGDNIGDQYAHWYQQKPGQSPVLVIYQDKNRPSGIPERFSGSNSGNTATLTISGTQAMDEADYYCATYTGFGSLAVFGGGTKLTVLGQPKAAPSVTLFPPSSEELQANKATLVCLISDFYPGAVTVAWKADSSPVKAGVETTTPSKQSNNKYAASSYLSLTPEQWKSHRSYSCQVTHEGSTVEKTVAPTECS
notes: also called G1/M0R7480.1

SEA assay (PBMC), hIL-2 max response, crosslinked [4]: 32200 pg/mL | SEA assay (PBMC), hIL-2 max response, no crosslinker [4]: 32400 pg/mL | SEA assay (PBMC), hIL-2 release EC50, crosslinked [4]: 0.14 nM | SEA assay (PBMC), hIL-2 release EC50, no crosslinker [4]: 0.09 nM | binding result (hCD137-mFc-Avi): binds | binding result (hOX40-mFc [5]): binds | EC50 of mIL-2 release, DO11.10-hCD137 assay, crosslinked [6]: 5.1 nM | Emax of mIL-2 release, DO11.10-hCD137 assay, crosslinked [6]: 19800 pg/mL
B2: FS20-22-49AA/FS30-35-14 (bispecific antibody, human IgG1, kappa, L234A L235A, V domains shown)
VH: EVQLLESGGGLVQPGGSLRLSCAASGFTFSAYNIHWVRQAPGKGLEWVSDISPYGGATNYADSVKGRFTISRDNSKNTLYLQMNSLRAEDTAVYYCARNLYELSAYSYGADYWGQGTLVTVSS
VL: EIVLTQSPGTLSLSPGERATLSCRASQSVSSSYLAWYQQKPGQAPRLLIYGASSRATGIPDRFSGSGSGTDFTLTISRLEPEDFAVYYCQQYYYSSPITFGQGTKVEIKR
notes: IgG1 with LALA; also called OX40/CD137 mAb^2

binding result [7]: no binding | binding result [8]: no binding | EC50 [9]: 0.09 nM | EC50 [10]: 0.1 nM
B3: G1/FS30-10-16 (antibody, IgG1, V domains shown)
VH: EVQLLESGGGLVQPGGSLRLSCAASGFTFSSYDMSWVRQAPGKGLEWVSDIDPTGSKTDYADSVKGRFTISRDNSKNTLYLQMNSLRAEDTAVYYCARDLLVYGFDYWGQGTLVTVSS
VL: EIVLTQSPGTLSLSPGERATLSCRASQSVSSSYLAWYQQKPGQAPRLLIYGASSRATGIPDRFSGSGSGTDFTLTISRLEPEDFAVYYCQQSYSYPVTFGQGTKVEIKR
notes: IgG1 format; also called CD137 Fab (in IgG1 format; FS30-010-016)

fluorescence over non-transduced cells (fold) [11]: ≥ 10 fold
B4: antibody OX86 (Biolegend cat no 119408) (antibody, V domains shown)
VH: QVQLKESGPGLVQPSQTLSLTCTVSGFSLTGYNLHWVRQPPGKGLEWMGRMRYDGDTYYNSVLKSRLSISRDTSKNQVFLKMNSLQTDDTAIYYCTRDGRGDSFDYWGQGVMVTVSS
VL: DIVMTQGALPNPVPSGESASITCRSSQSLVYKDGQTYLNWFLQRPGQSPQLLTYWMSTRASGVSDRFSGSGSGTYFTLKISRVRAEDAGVYYCQQVREYPFTFGSGTKLEIK
